Source: patent publication US20230257473A1 (TENEOBIO, published 2023)
Values belong to the binder of their own block, whether it stands above or below them.

Experiments:
[1] = molecular target: recombinant BCMA (R&D Systems, catalog no. 193-BC) (human) (UniProt Q02223); experiment: competitive ELISA, plate-bound BCMA; Ab 0.020 ng/mL; competitor APRIL 62.50 ng/mL
[2] = molecular target: recombinant BCMA (R&D Systems, catalog no. 193-BC) (human) (UniProt Q02223); experiment: competitive ELISA, plate-bound BCMA; Ab 0.200 ng/mL; competitor APRIL 250.00 ng/mL
[3] = molecular target: BCMA on BCMA-expressing cells (H929 / NCI-H929, MM1.S, U266, Daudi) (human) (UniProt Q02223); experiment: flow cytometry on MM1.S cells; antibody 0.195 ng/ml
[4] = molecular target: recombinant BCMA (R&D Systems, catalog no. 193-BC) (human) (UniProt Q02223); experiment: competitive ELISA, plate-bound BCMA; Ab 0.002 ng/mL; competitor APRIL 7.81 ng/mL
[5] = molecular target: recombinant BCMA (R&D Systems, catalog no. 193-BC) (human) (UniProt Q02223); experiment: competitive ELISA, plate-bound BCMA; Ab 0.200 ng/mL; competitor APRIL 15.63 ng/mL
[6] = molecular target: BCMA on BCMA-expressing cells (H929 / NCI-H929, MM1.S, U266, Daudi) (human) (UniProt Q02223); experiment: flow cytometry on H929 cells; antibody 0.195 ng/ml
[7] = molecular target: recombinant BCMA (R&D Systems, catalog no. 193-BC) (human) (UniProt Q02223); experiment: competitive ELISA, plate-bound BCMA; Ab 200.000 ng/mL; competitor APRIL 0.00 ng/mL
[8] = molecular target: recombinant BCMA (R&D Systems, catalog no. 193-BC) (human) (UniProt Q02223); experiment: competitive ELISA, plate-bound BCMA; Ab 0.002 ng/mL; competitor APRIL 62.50 ng/mL
[9] = molecular target: recombinant BCMA (R&D Systems, catalog no. 193-BC) (human) (UniProt Q02223); experiment: competitive ELISA, plate-bound BCMA; Ab 2.000 ng/mL; competitor APRIL 15.63 ng/mL
[10] = molecular target: BCMA on BCMA-expressing cells (H929 / NCI-H929, MM1.S, U266, Daudi) (human) (UniProt Q02223); experiment: flow cytometry on H929 cells; antibody 200.000 ng/ml
[11] = molecular target: recombinant BCMA (R&D Systems, catalog no. 193-BC) (human) (UniProt Q02223); experiment: competitive ELISA, plate-bound BCMA; Ab 20.000 ng/mL; competitor APRIL 31.25 ng/mL
[12] = molecular target: BCMA on BCMA-expressing cells (H929 / NCI-H929, MM1.S, U266, Daudi) (human) (UniProt Q02223); experiment: flow cytometry on MM1.S cells; antibody 6.250 ng/ml
[13] = molecular target: BCMA on BCMA-expressing cells (H929 / NCI-H929, MM1.S, U266, Daudi) (human) (UniProt Q02223); experiment: flow cytometry on MM1.S cells; antibody 50.000 ng/ml
[14] = molecular target: BCMA on BCMA-expressing cells (H929 / NCI-H929, MM1.S, U266, Daudi) (human) (UniProt Q02223); experiment: flow cytometry on H929 cells; antibody 1.560 ng/ml
[15] = molecular target: recombinant BCMA (R&D Systems, catalog no. 193-BC) (human) (UniProt Q02223); experiment: competitive ELISA, plate-bound BCMA; Ab 0.200 ng/mL; competitor APRIL 62.50 ng/mL
[16] = molecular target: recombinant BCMA (R&D Systems, catalog no. 193-BC) (human) (UniProt Q02223); experiment: competitive ELISA, plate-bound BCMA; Ab 20.000 ng/mL; competitor APRIL 15.63 ng/mL
[17] = molecular target: BCMA on BCMA-expressing cells (H929 / NCI-H929, MM1.S, U266, Daudi) (human) (UniProt Q02223); experiment: flow cytometry on MM1.S cells; antibody 0.098 ng/ml
[18] = molecular target: recombinant BCMA (R&D Systems, catalog no. 193-BC) (human) (UniProt Q02223); experiment: competitive ELISA, plate-bound BCMA; Ab 0.002 ng/mL; competitor APRIL 31.25 ng/mL
[19] = molecular target: BCMA on BCMA-expressing cells (H929 / NCI-H929, MM1.S, U266, Daudi) (human) (UniProt Q02223); experiment: flow cytometry on H929 cells; antibody 100.000 ng/ml
[20] = molecular target: recombinant BCMA (R&D Systems, catalog no. 193-BC) (human) (UniProt Q02223); experiment: competitive ELISA, plate-bound BCMA; Ab 0.200 ng/mL; competitor APRIL 500.00 ng/mL
[21] = molecular target: recombinant BCMA (R&D Systems, catalog no. 193-BC) (human) (UniProt Q02223); experiment: competitive ELISA, plate-bound BCMA; Ab 20.000 ng/mL; competitor APRIL 7.81 ng/mL
[22] = molecular target: recombinant BCMA (R&D Systems, catalog no. 193-BC) (human) (UniProt Q02223); experiment: competitive ELISA, plate-bound BCMA; Ab 2.000 ng/mL; competitor APRIL 125.00 ng/mL
[23] = molecular target: recombinant BCMA (R&D Systems, catalog no. 193-BC) (human) (UniProt Q02223); experiment: competitive ELISA, plate-bound BCMA; Ab 200.000 ng/mL; competitor APRIL 62.50 ng/mL
[24] = molecular target: BCMA on BCMA-expressing cells (H929 / NCI-H929, MM1.S, U266, Daudi) (human) (UniProt Q02223); experiment: flow cytometry on H929 cells; antibody 0.098 ng/ml
[25] = molecular target: recombinant BCMA (R&D Systems, catalog no. 193-BC) (human) (UniProt Q02223); experiment: competitive ELISA, plate-bound BCMA; Ab 0.020 ng/mL; competitor APRIL 250.00 ng/mL
[26] = molecular target: recombinant BCMA (R&D Systems, catalog no. 193-BC) (human) (UniProt Q02223); experiment: competitive ELISA, plate-bound BCMA; Ab 0.020 ng/mL; competitor APRIL 0.00 ng/mL

recombinant BCMA (R&D Systems, catalog no. 193-BC) (human), sequence (Q02223 5-51 limits assumed): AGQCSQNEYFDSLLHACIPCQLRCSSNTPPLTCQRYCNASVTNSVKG
BCMA on BCMA-expressing cells (H929 / NCI-H929, MM1.S, U266, Daudi) (human), sequence (Q02223 whole entry): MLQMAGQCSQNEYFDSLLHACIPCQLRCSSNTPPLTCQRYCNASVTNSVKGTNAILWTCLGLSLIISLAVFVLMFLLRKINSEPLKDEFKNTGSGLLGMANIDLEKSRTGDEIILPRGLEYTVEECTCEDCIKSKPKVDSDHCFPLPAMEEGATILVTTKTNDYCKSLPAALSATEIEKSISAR

A450-A570 [1]: 0.0577
A450-A570 [2]: 0.0614
MFI [3]: 2010
A450-A570 [4]: 0.0602
A450-A570 [5]: 0.0587
MFI [6]: 5010
A450-A570 [7]: 2.47
A450-A570 [8]: 0.0569
A450-A570 [9]: 0.107
MFI [10]: 52900
A450-A570 [11]: 0.828
MFI [12]: 2110
MFI [13]: 2930
MFI [14]: 5060
A450-A570 [15]: 0.0595
A450-A570 [16]: 0.778
MFI [17]: 1960
A450-A570 [18]: 0.0528
MFI [19]: 20900
A450-A570 [20]: 0.0603
A450-A570 [21]: 0.789
A450-A570 [22]: 0.108
A450-A570 [23]: 2.44
MFI [24]: 5070
A450-A570 [25]: 0.0618
A450-A570 [26]: 0.057
B1: AntiX**BCMA_F7E_F7E (bispecific antibody, part only; not given: other chains of three-chain format, not shown: another chain or arm of the molecule)
tandem VH: QVQLVESGGGLVQPGGSLRLSCVASGFTFSSNAMSWVRQAPGKGLEWVSAISGSGDYTHYSDSVKGRFTISRDNSKNTLYLQMNSLRAEDTAVYYCAKEVPGGPLVDFDSRGQGTLVTVSSGGGGSGGGGSQVQLVESGGGLVQPGGSLRLSCVASGFTFSSNAMSWVRQAPGKGLEWVSAISGSGDYTHYSDSVKGRFTISRDNSKNTLYLQMNSLRAEDTAVYYCAKEVPGGPLVDFDSRGQGTLVTVSS

A450-A570 [1]: 0.0629
A450-A570 [2]: 0.0615
MFI [3]: 2070
A450-A570 [4]: 0.0607
A450-A570 [5]: 0.0661
MFI [6]: 5030
A450-A570 [7]: 2.44
A450-A570 [8]: 0.067
A450-A570 [9]: 0.0867
MFI [10]: 14100
A450-A570 [11]: 0.418
MFI [12]: 2130
MFI [13]: 2180
MFI [14]: 5100
A450-A570 [15]: 0.0631
A450-A570 [16]: 0.482
MFI [17]: 2040
A450-A570 [18]: 0.058
MFI [19]: 7560
A450-A570 [20]: 0.0745
A450-A570 [21]: 0.495
A450-A570 [22]: 0.0736
A450-A570 [23]: 2.07
MFI [24]: 5060
A450-A570 [25]: 0.0617
A450-A570 [26]: 0.063
B2: anti-BCMA heavy chain-only antibody (UniAb) with the VH of SEQ ID NO: 12 (antibody, V domains shown)
VH: QVQLVESGGGLVQPGGSLRLSCVASGFTFSSNAMSWVRQAPGKGLEWVSAISGSGDYTHYSDSVKGRFTISRDNSKNTLYLQMNSLRAEDTAVYYCAKEVPGGPLVDFDSRGQGTLVTVSS
notes: Heavy chain-only antibody from UniRat; also called Clone ID No: 316302
